Data: patent publication CN116744966A (WISTAR INST; WEINER DAVID; MUTHUMANI KARTHIK; PARZACCHI …, dated 2023)

B1: WCoVA9 (antibody, V domains shown)
VH: EVQLQQSGAELVKPGASVKLSCTASGFNIKDTYMHWVKQRPEQGLEWIGRIDPANGNTKYDPKFQAKATITANTSSNTAYLHLSSLTSEDTAVYYCAPYYDYVGAMDYWGQGTSVTVSS
VL: DIQMTQSPASQSASLGESVTITCLASQTIGTWLAWYQQKPGKSPQLLIYAATSLADGVPSRFSGSGSGTKFSFKISSLQAEDFVSYYCQQLYNTPLTFGGGTKLEIK
B2: WCoVA7 (antibody, V domains shown)
VH: EVKLLESGGGLVQPGGSLKLSCAASGFDFSRYWMSWVRQAPGKGLEWIGEINPDSSTINYTPSLKDKFIISRDNAKNTLYLQMSKVRSEDTALYYCARIYYGSPGAMDYWGQGTSVTVSS
VL: SIVMTQTPKFLLVSAGDRVTITCKASQSVSNDVAWYQQKPGQSPKLLIYYASNRYTGVPDRFTGSGYGTDFTFTISTVQAEDLAVYFCQQDYFSPYTFGGGTKLEIK

Experiments:
[1] = target: recombinant SARS-CoV-2-RBD (Sino Biological) (SARS-CoV-2, UniProt P0DTC2 319-541)
[2] = target: SARS-CoV-2 spike protein (wild type) on pseudovirus (SARS-CoV-2, UniProt P0DTC2 14-1273); test: cell-based or functional assay

| Binder | Kd [1] | IC50, pseudovirus neutralisation (CHO-ACE2 cells, luciferase) [2] |
| --- | --- | --- |
| B1 | < 1 nM | 4.9 ng/mL |
| B2 |  | 2.6 ng/mL |
